From patent US20190338048A1 (published 2019)
Substitutions are numbered along the chain they refer to. Names may count otherwise. Read-outs that look alike come from different tables or passages of the source.

Columns and labels:
[1] = target: CAT-2200 heavy chain Fab construct (H1), wild type; assay: LCCA, SPR tag read-out
[2] = target: Pertuzumab heavy chain Fab construct (H2) L45A (VH L45A); assay: LCCA, SPR tag read-out
[3] = target: Pertuzumab heavy chain Fab construct (H2) L45P (VH L45P); assay: LCCA, SPR tag read-out
[4] = target: CAT-2200 heavy chain Fab construct (H1) L45F (VH L45F); assay: LCCA, SPR tag read-out
Recombinant human IL-17A [5] = target: T1, Recombinant human IL-17A (human, UniProt Q16552 20-155, limits assumed); assay: SPR
T1 sequence (Q16552 20-155 limits assumed): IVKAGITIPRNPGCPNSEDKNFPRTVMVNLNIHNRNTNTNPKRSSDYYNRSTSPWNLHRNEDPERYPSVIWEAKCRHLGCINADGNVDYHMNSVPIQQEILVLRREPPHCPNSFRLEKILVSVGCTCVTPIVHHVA

Recombinant human IL-17A [6] = target: T1, Recombinant human IL-17A; assay: SPR; remark: listed apart in the source
Recombinant human IL-17A [7] = target: T2, Recombinant human IL-17A (human, UniProt Q16552 20-155, limits assumed); assay: SPR; remark: listed apart in the source
T2 sequence (Q16552 20-155 limits assumed): as above

Recombinant human IL-17A [8] = target: T2, Recombinant human IL-17A; assay: SPR; remark: listed apart in the source
[9] = target: CAT-2200 heavy chain Fab construct (H1) Q39D (VH Q39D); assay: LCCA, SPR tag read-out
[10] = target: CAT-2200 heavy chain Fab construct (H1) Q39E (VH Q39E); assay: LCCA, SPR tag read-out
[11] = target: Pertuzumab heavy chain Fab construct (H2) Q39R (VH Q39R); assay: LCCA, SPR tag read-out
[12] = target: CAT-2200 heavy chain Fab construct (H1) Q39E (VH Q39E); assay: LCCA, SPR tag read-out; remark: listed apart in the source
[13] = target: Pertuzumab heavy chain Fab construct (H2) Q39K (VH Q39K); assay: LCCA, SPR tag read-out
[14] = target: T3, His-tagged recombinant human CD-19 (human, UniProt P15391 20-291, limits assumed); assay: SPR
T3 sequence (looked up): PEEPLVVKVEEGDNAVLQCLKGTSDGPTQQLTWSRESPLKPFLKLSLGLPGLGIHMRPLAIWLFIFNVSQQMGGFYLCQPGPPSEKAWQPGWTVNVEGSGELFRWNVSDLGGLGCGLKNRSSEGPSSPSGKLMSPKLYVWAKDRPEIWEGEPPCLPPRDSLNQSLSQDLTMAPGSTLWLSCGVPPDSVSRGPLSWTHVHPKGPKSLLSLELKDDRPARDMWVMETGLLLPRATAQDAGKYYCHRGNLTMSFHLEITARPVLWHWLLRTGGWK

[15] = target: T3, His-tagged recombinant human CD-19; assay: SPR; remark: listed apart in the source
[16] = target: His-tagged Influenza B Hemagglutinin (B/Brisbane/60/2008) (Influenza B (B/Brisbane/60/2008))
[17] = target: T4, His-tagged recombinant human CD-19 (human, UniProt P15391 20-291, limits assumed); assay: SPR; remark: listed apart in the source
T4 sequence (looked up): T3 sequence (looked up)

[18] = target: T4, His-tagged recombinant human CD-19; assay: SPR; remark: listed apart in the source

B1: Pertuzumab kappa light chain construct (L2) P44F, HA-tagged (other, not shown: small tags and cut ends)
light: DIQMTQSPSSLSASVGDRVTITCKASQDVSIGVAWYQQKPGKAFKLLIYSASYRYTGVPSRFSGSGSGTDFTLTISSLQPEDFATYYCQQYYIYPYTFGQGTKVEIKRTVAAPSVFIFPPSDEQLKSGTASVVCLLNNFYPREAKVQWKVDNALQSGNSQESVTEQDSKDSTYSLSSTLTLSKADYEKHKVYACEVTHQGLSSPVTKSFNRGEC
[1]
  H1L1:H1L2 normalized median ratio (H1L2 part): 38%
[2]
  H2L2:H2L1 normalized median ratio (H2L2 part): 59%
  H2L2:H2L1 normalized median scalar value ln(r1/f1): 0.37
[3]
  H2L2:H2L1 normalized median ratio (H2L2 part): 67%
  H2L2:H2L1 normalized median scalar value ln(r1/f1): 0.72
[4]
  H1L1:H1L2 normalized median ratio (H1L2 part): 35%

B2: Design 2979 bispecific antibody, System A (CAT-2200 H1/L1 & Pertuzumab H2/L2) (bispecific antibody)
chain 1: not shown
chain 2: NFMLTQPHSVSESPGKTVTISCTRSSGSLANYYVQWYQQRPGSSPTIVIFANNQRPSGVPDRFSGSIDSSSNSASLTISGLKTEDEADYYCQTYDPYSVVFGGGTKLTVLGQPKAAPSVTLFPPSSEELQANKATLVCLISDFYPGAVTVAWKADSSPVKAGVETTTPSKQSNNKYAAESELSLTPEQWKSHRSYSCQVTHEGSTVEKTVAPTECS
chain 3: not shown
chain 4: B1 light with F44P, S131R, V133G, S176R
Recombinant human IL-17A [5]
  Kd: 0.31 nM
Recombinant human IL-17A [6]
  Difference in H1L1 log(KD) from wild type: -0.03

B3: Design 3931 bispecific antibody, System A (CAT-2200 H1/L1 & Pertuzumab H2/L2) (bispecific antibody)
chain 1: not shown
chain 2: B2 chain 2 with E179S, E181K
chain 3: not shown
chain 4: B1 light with F44P, V133G, S176D
Recombinant human IL-17A [7]
  Kd: 0.44 nM
Recombinant human IL-17A [8]
  Difference in H1L1 log(KD) from wild type: -0.07 log(KD)

B4: Design 3967 bispecific antibody, System A (CAT-2200 H1/L1 & Pertuzumab H2/L2) (bispecific antibody)
chain 1: not shown
chain 2: B2 chain 2 with S126D, K133T
chain 3: not shown
chain 4: B1 light with F44P, S121K, Q124R, T178R
Recombinant human IL-17A [7]
  Kd: 0.37 nM
Recombinant human IL-17A [8]
  Difference in H1L1 log(KD) from wild type: -0.11 log(KD)

B5: Design 3113 bispecific antibody, System A (CAT-2200 H1/L1 & Pertuzumab H2/L2) (bispecific antibody)
chain 1: not shown
chain 2: B2 chain 2 with V137D, E179S, E181T
chain 3: not shown
chain 4: B1 light with F44P, S131R, V133G, S176R
Recombinant human IL-17A [5]
  Kd: 0.39 nM
Recombinant human IL-17A [6]
  Difference in H1L1 log(KD) from wild type: -0.14

B6: Design 2994 bispecific antibody, System A (CAT-2200 H1/L1 & Pertuzumab H2/L2) (bispecific antibody)
chain 1: not shown
chain 2: B2 chain 2 with E128Q, T135K, E179S, E181Y
chain 3: not shown
chain 4: B1 light with F44P, Q124E, V133D
Recombinant human IL-17A [7]
  Kd: 0.45 nM
Recombinant human IL-17A [8]
  Difference in H1L1 log(KD) from wild type: -0.08 log(KD)

B7: Pertuzumab kappa light chain construct (L2) Q38E, HA-tagged (other, not shown: small tags and cut ends)
light: B1 light with Q38E, F44P
[9]
  H1L1:H1L2 normalized median ratio (H1L2 part): 36%
[10]
  H1L1:H1L2 normalized median ratio (H1L2 part): 31%
[11]
  H2L2:H2L1 normalized median ratio (H2L2 part): 54%
  H2L2:H2L1 normalized median scalar value ln(r1/f1): 0.15
[12]
  H1L1:H1L2 normalized median ratio (H1L2 part): 24%
[13]
  H2L2:H2L1 normalized median ratio (H2L2 part): 54%

B8: Pertuzumab kappa light chain construct (L2) Q38D, HA-tagged (other, not shown: small tags and cut ends)
light: B1 light with Q38D, F44P
[10]
  H1L1:H1L2 normalized median ratio (H1L2 part): 31%
[11]
  H2L2:H2L1 normalized median ratio (H2L2 part): 56%
  H2L2:H2L1 normalized median scalar value ln(r1/f1): 0.23

B9: Design 2979 bispecific antibody, System B (CAT-2200 H1/L1 & SGN-CD19a H2/L2) (bispecific antibody)
chain 1: not shown
chain 2: B2 chain 2
chain 3: not shown
chain 4: EIVLTQSPATLSLSPGERATLSCSASSSVSYMHWYQQKPGQAPRLLIYDTSKLASGIPARFSGSGSGTDFTLTISSLEPEDFAVYYCFQGSVYPFTFGQGTKLEIKRTVAAPSVFIFPPSDEQLKSGTARVGCLLNNFYPREAKVQWKVDNALQSGNSQESVTEQDSKDSTYSLRSTLTLSKADYEKHKVYACEVTHQGLSSPVTKSFNRGEC
Recombinant human IL-17A [5]
  Kd: 0.39 nM
[14]
  Kd: 149 nM
Recombinant human IL-17A [6]
  Difference in H1L1 log(KD) from wild type: -0.14
[15]
  Difference in H2L2 log(KD) from wild type: 0.18

B10: Design 3890 bispecific antibody, System C (CR8071 H1/L1 & SGN-CD19a H2/L2) (bispecific antibody)
chain 1: QVQLVQSGAEVKKPGASVRVSCRASGYIFTESGITWVRQAPGQGLEWMGWISGYSGDTKYAQKLQGRVTMTKDTSTTTAYMELRSLRYDDTAVYYCARDVQYSGSYLGAYYFDYWSPGTLVTVSSASTKGPSVFPLRPSSKSTSGGTAALGCLVKDYFPEPVTVSWNSGALTSGVHTFPAVLKSSGLYSLSSVVTVPSSSLGTQTYICNVNHKPSNTKVDKKVEPKSCDKTHTCPPCPAPELLGGPSVFLFPPKPKDTLMISRTPEVTCVVVDVSHEDPEVKFNWYVDGVEVHNAKTKPREEQYNSTYRVVSVLTVLHQDWLNGKEYKCKVSNKALPAPIEKTISKAKGQPREPQVYVYPPSRDELTKNQVSLTCLVKGFYPSDIAVEWESNGQPENNYKTTPPVLDSDGSFALVSKLTVDKSRWQQGNVFSCSVMHEALHNHYTQKSLSLSPG
chain 2: not shown
chain 3: not shown
chain 4: B9 chain 4 with S120K, Q123R, R130S, G132V, R175S, T177R
[16]
  Kd: 0.44 nM
[17]
  Kd: 40.9 nM
[18]
  Difference in H2L2 log(KD) from wild type: 0.22 log(KD)

B11: Design 3931 bispecific antibody, System B (CAT-2200 H1/L1 & SGN-CD19a H2/L2) (bispecific antibody)
chain 1: not shown
chain 2: B2 chain 2 with E179S, E181K
chain 3: not shown
chain 4: B9 chain 4 with R130S, R175D
Recombinant human IL-17A [7]
  Kd: 0.29 nM
[17]
  Kd: 54.9 nM
Recombinant human IL-17A [8]
  Difference in H1L1 log(KD) from wild type: 0.11 log(KD)
[18]
  Difference in H2L2 log(KD) from wild type: 0.09 log(KD)

B12: Design 3967 bispecific antibody, System B (CAT-2200 H1/L1 & SGN-CD19a H2/L2) (bispecific antibody)
chain 1: not shown
chain 2: B2 chain 2 with S126D, K133T
chain 3: not shown
chain 4: B9 chain 4 with S120K, Q123R, R130S, G132V, R175S, T177R
Recombinant human IL-17A [7]
  Kd: 0.38 nM
[17]
  Kd: 36.1 nM
Recombinant human IL-17A [8]
  Difference in H1L1 log(KD) from wild type: -0.13 log(KD)
[18]
  Difference in H2L2 log(KD) from wild type: 0.27 log(KD)

B13: Design 2994 bispecific antibody, System B (CAT-2200 H1/L1 & SGN-CD19a H2/L2) (bispecific antibody)
chain 1: not shown
chain 2: B2 chain 2 with E128Q, T135K, E179S, E181Y
chain 3: not shown
chain 4: B9 chain 4 with Q123E, R130S, G132D, R175S
Recombinant human IL-17A [7]
  Kd: 0.28 nM
[17]
  Kd: 49.7 nM
Recombinant human IL-17A [8]
  Difference in H1L1 log(KD) from wild type: 0.12 log(KD)
[18]
  Difference in H2L2 log(KD) from wild type: 0.16 log(KD)

B14: Design 2901 bispecific antibody, System C (CR8071 H1/L1 & SGN-CD19a H2/L2) (bispecific antibody)
chain 1: B10 chain 1 with R137A, K155T, V181D, K183Q, S191D
chain 2: not shown
chain 3: not shown
chain 4: B9 chain 4 with R130S, R175D
[16]
  Kd: 0.64 nM
[17]
  Kd: 41.9 nM
[18]
  Difference in H2L2 log(KD) from wild type: 0.21 log(KD)

B15: Design 3113 bispecific antibody, System B (CAT-2200 H1/L1 & SGN-CD19a H2/L2) (bispecific antibody)
chain 1: not shown
chain 2: B2 chain 2 with V137D, E179S, E181T
chain 3: not shown
chain 4: B9 chain 4
Recombinant human IL-17A [5]
  Kd: 0.44 nM
[14]
  Kd: 216 nM
Recombinant human IL-17A [6]
  Difference in H1L1 log(KD) from wild type: -0.2
[15]
  Difference in H2L2 log(KD) from wild type: 0.02
